According to US20020164657A1 (published 2002):

Molecular target: T1, Aβ 1-42
T1 construct: Obtained from Bachem, dissolved in 50% DMSO and used as the aggregated (insoluble) form; also called aggregated Aβ 1-42; beta-amyloid peptide 1-42
Assay: co-sedimentation with Aβ 1-42, SDS-PAGE densitometry
Procedure: Samples were centrifuged at 12,000×g in a micro centrifuge for 5 min. The supernatants were removed, and the pellets washed once with 40 mM Tris, pH 7.5, 10 mM MgCI₂, 1 mM DTT and centrifuged again. The pellets were resuspended in 100 μl buffer, electrophoresed on 12% SDS-PAGE next to the corresponding supernatant, and stained with Coomassie Blue R-250.

T1 sequence (peptide, as listed by the source): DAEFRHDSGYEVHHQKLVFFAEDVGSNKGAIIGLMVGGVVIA

binding result: no binding
B1: N-terminal tau (M1-238S) (other)
chain: MAEPRQEFEVMEDHAGTYGLGDRKDQGGYTMHQDQEGDTDAGLKAEEAGIGDTPSLEDEAAGHVTQARMVSKSKDGTGSDDKKAKGADGKTKIATPRGAAPPGQKGQANATRIPAKTPPAPKTPPSSGEPPKSGDRSGYSSPGSPGTPGSRSRTPSLPTPPTREPKKVAVVRTPPKSPSS
notes: also called N-terminal tau domain (IM-238S)
